Assay results taken from the nanobody polyreactivity screen of Harvey et al. (2022).

Assay: yeast display, Sf9 membrane polyspecificity reagent, FACS + sequencing; frameworks hold sequencing errors
In short: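 Galactose induction of a Saccharomyces cerevisiae BJ5465 synthetic nanobody display library ran 36–48 hours. The cells were then stained for 1 hour at 4 °C with 10% biotinylated, detergent-solubilized Sf9 membrane reagent, pulled down on streptavidin microbeads and FACS-sorted into low and high (top ~1%) gates on expression and reagent-binding fluorescence. Labels for polyreactivity follow the gate of origin.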

Row | Sequence | polyreactivity (PSR sort gate)
1 | QVQLVESGGGLVQAGGSLRLSCAASGSIFRRYAMGWYRQAPGKERELVAAISGSAGSTYYADSVKGRFTISRDNAKNTVYLQMNSLKPEDTAVYYCAADPDDGYDYWGQVTQVTVSS | low polyreactivity
2 | QVQLVESGGGLVQAGGSLRLSCAASGSIFNAMGWYRQAPGKERELVAAITSGSSTYYADSVKGRFTISRDNAKNTVYLQMNSLKPEDTAVYYCAAGSQRRYYHTNWDSFNYWGQGTQVTVSS | low polyreactivity
3 | QVQLVESGGGLVQAGGSLRLSCAASGRTFNSYAMGWYRQAPGKEWELVASISSGGSTYYADSVKGRFTLSRDNAKNTDYLQMNSLKPEDTAVYYCAAKSVAYYSYFRRDYWGQGTQVTVSS | low polyreactivity
4 | QVQLVESGGGLVQAGGSLRLSCAASGRIFYSYAMGWYRQAPGKERELVAAINSGDRTNYADSVKGRFTISRDNAKNTVYLQMNSLKPEDTAVYYCATDDYPWRRHPWYAGYDSWGQGTQVTVSS | low polyreactivity
5 | QVQLVESGGGLVQAGGSLRLSCAASGGIFLRYSMGWYRQAPGKERELVAAITANGGSTYYADSVKGRFTISRDNAKNTVYLQMISMKPEDTAVYYCNADSFPALNKRGYDYWGQVTQVTVSS | low polyreactivity
6 | QVQLVESGGGLVQAGGSLRLSCSASGRIFRYNGKGWYRQAHGKERELVAVITHRSGTTSYADSVKGRFTISRDNAKNTVYLQMNSLKPEDTAVYYCARGYYKPSVGKSKRVGGNYLGQGTQVTVSS | high polyreactivity
7 | QVKLVESGGGLVQAGGSLRLSCAASGRIFGYNAMGWYRQAPGKERELVAAISRSGGTTYYADSVKGRFTISRDNSKNTVNLQMNRLKPEDTEVYYCAAYYRTRVPYDMDYWGQGTQVTVSS | high polyreactivity
8 | QVQLVESGGGLVQAGCSLRLTCAASGSIFRTNAMGWSRQAPGKERELVAAITGSGGSTYYADSVKGRFTISRDNAKNTVYLQMNSLKPEDTAVYYCAAEFGSFVSPYNYYFWGLGTQVTVSS | low polyreactivity
9 | QVQLVESGGGLVQAGGSLRLSCAASGSIFGLNAMGWSRPAPGKERELVAAISGGSTNYADSVKGRFTISRDNAKNTVYLQMNSLKPEDTAVYYCAARARRRYYYWGQGTQVTVSS | high polyreactivity
10 | QVQLVESGGGLVQAGGSLRLSCAASGRTFGNYAMGWYRQAPGKERELVAAISSGRSTNYADSVKRRFTISRDNGKNTVYLQMNSLKPEDTAVYYCNADWGFPDVKETGVRFDYWGQGTQVTVSW | low polyreactivity
11 | QVQLVESGGGLVQAGGSLRLSCAASGRIFDTYAMGWDRPAPRKERELVAAINSGGRTYYADSVKGRFTISRDNAKNTVYVQMNSLKPEDTAVYYCAAYITYSYGRYGSWGQGTQVTVSS | high polyreactivity
12 | QVQLVESGGGLVQAGGSLRLSCAASGFTFSVNAMGWYRQAPGKERELVADIDWSGGSTYYADSVKGRFTISRDNAKNTVYLQMNSLKPEDTAVYYCSADYYSPDSYVQGSSGEYWGQGTQVTVSS | low polyreactivity
13 | QVQLVESGGGLVQAGGSLRLSCAASGRTFYSYAMGWYRQAPGKERELVAAISRAGGTYYADSVKGRFTISRDNAKNTVYLQMNSLKPEDTAVYYCAARQAVYGLRSDFYYWGQGTQVTVSS | high polyreactivity
14 | QVQLVESGGGLVQAGGSLRLSCAASGSTFDSYAMGWYRPAPGKERELVAAISSGGSTNYADSVKGRFTISRDNAKNTVYLQMYSLKPEDTAVYYCAAYGGHIWWLYRHYGYDYWGQGTQVTVSS | low polyreactivity
15 | QVQLVESGGGLVQAGGSLRLSCAASGFTIAPDAMGWYRPAPGKERELVADISYSGGSKYYADSVKGRFTISRDTAKNTVYLQMNSLKPEDTAVYYCNAVIWWYWGRSYAYNYWGQGTQVTVSS | high polyreactivity
16 | QVQLVESGGGLVQAGGSLRLSCAASGNNFGNNAMGWYRQAPGKERELVAAISSSGTSTYYADSVKGRFTISRDNAKNTVYLQMNSLKPEDTSVYYCNADPLPYDGYYDYDYWGQGTEVTVSS | low polyreactivity

Row | Sequence | polyreactivity (PSR sort gate)
17 | QVQLVESGGGLVQAGGSLRLSCAASGRTFRWYAMGWYRQAPGKERELVAAITSDGRTYYADSVKGRFTISRDNAKNTVYLQMNSLNPEDTAVYYCNAACRYAFPFGYNYWGQGTQVTVSS | high polyreactivity
18 | QVQLVESGGGLVQAGGSLRLSCAASGRIFAAYAMGWYRQAPGKERELVAGISRGGRTYYADSVKGRFTISRDNAKNTVYLQMNSLKPEDTAVYYCAKRATGQYSITTYGYDYWGQGTQVTVSS | low polyreactivity
19 | QVQLVESGGGLVQAGGSLRLSCAASGRIFPWNAMGWYRQAPGKERDLVAAISFSAGRTYYADSVKGRFTISRDNAKNTVYLQMNSLKPEDTAVYYCNARIGSRWVWTGIIGYEYWGQGTQVTVSS | low polyreactivity
20 | QVQLVESGGGLVQAGGSLRLSCAASGFIFQWYAMGWYRQAPGKERELVAAISIGDSTYYADSVKGRFTISRDNAKNTVYLQMNSLKPADTAVYFCNADPWGYYSVIPLYEYDYWGQGTQVTVSS | low polyreactivity
21 | QVQLVESGGGLVQAGGSLRLSCASSGRILYLNAMGWYRQAPGKERELVAAITLRAGSTRYADSVKGRFTISRDNAKNTVYLQMNSLKPEDTAVYYCAVAYYRNRMDYWVQGTQVTVSS | high polyreactivity
22 | QVQLVESCGGLVQAGGILRLSCAASGFISSENAMGWYRQAPGKERELVAAISSGGSTNYADSVKGRFTISRDNAKNTVYLQMNRLKAEVTAVYYCAATLQGWYHEDESWGQGTQVTVSS | low polyreactivity
23 | QVQLVESGGGLVQAGGSLRLSCAASGFTFVRYAMGWYRQAPGKEREFVAGITRSGGSTYYADSVKGRFTISRDNAKNTVYLQMNSLKPEDTAVYYCNRAYYSYHDQPYEYWGQGTQVSVSS | high polyreactivity
24 | QVQLVESGGGLVQAGGSLRLSCAASGLIFYVYAMGWYRQAPGKERELVADITYSGGRTYYADSVKGRFTISRDKAKNTVYLQMNSLKPEDTAVYYCAADSVKYGIDPGLPNSDDYWGQGTQVTVSS | low polyreactivity
25 | QVQLVESGGGLVQAGGSLRLSCAASGRTFWRNDMGWYRQAPGKERELVARISWSGGSTYYADSVKGRFTISRDNAKNTVYLQMNSLKPEDTAVYYCAKYYPGRSAFSDGNYWGQGTQVTVSS | low polyreactivity
26 | QVRLVESGGGLVQAGGSLRLSCAASGRIFYRYAIGWYRQAPGKERELVAAISSSGGSTYYADSVKGRFTISRDNAKNTVYLQMNSLKPEDTAVYYCAADAGSINSGYDYWGQGTQVTVSS | low polyreactivity
27 | QVQLVESGGGLVQAGGSLRLSCAASGNIFGIYTMGWYRQAPGKEREFFAVISLSGTSTYYADSVKGRFTISRDNAKNTVYLQMNSLKPEDTAVYYCNARTPHNKGRRRAYDYWGLGTQVTVSS | high polyreactivity
28 | QVQLVESGGGLVQAGGSLRLICAASGSIIHKNAMGWYRQAPGKERELVARITSSSGSTYYADSVKGRFTISRDNAKNTVYLQMNSLKPEDTAVYYFNAVYYHDVDFDYWGQGTQVTVSS | high polyreactivity
29 | QVQLVESGGGLVQAGGSLRLSCAASGFIFYYYAMGWYRQAPGKERELVAAISWSGGSTYYADSVKGRFTISRDNAKNTVYLQMNSLKPEDTAVYDCAVSRDSYGGKGSFLYDYWGQGTQVTVSS | low polyreactivity
30 | QVQLVESGGGLVQAGGSLRLSCAASGRTFSSYAMGWYRQEPGKERELVARINSDGGRTYYADSVKGRFTISRDNAKNTVYLQMNSLKPEDTAVYYCAKRVVRGKVDYWGQGTQVTVSS | low polyreactivity
31 | QVQLVESGGGLVQAGGSLRLSCAASGSTLGVNAMGWYRQAPGKEREFVAAITGRGGNTYYADSVKGRFTISRDNAKNTVYLQMNSLKPEDTAVYYCAARVKYTRYQSILDYYYWGQGTQVTVSS | high polyreactivity
